# Measurements taken from the domain aggregation screens of Martell et al. (2025).
# Test: soluble fraction after stress (log2 fold change); higher = more stays soluble; pooled small domains, quantitative proteomics
# Conditions: stress: 75 degC
# 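Also: 20 min heating vs room temperature control held 20 min.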
row,Sequence,soluble fraction (log2)
1,HMSEEAMVSNFRQQEILELARKDGKVTVDGLAELYDVTVQTIRRDLSDLADSGRLKRVHGGAVVPS,0.162
2,HMREYVGLSPFNKEKTPSFYVNDEKGQFFDFSSGKNGDLITFLQETERLTFMEAVERLAAEAGLPMPA,-0.742
3,HMEDFDLSDTERKIIAQIGHGYSNKEIAQKLGFSEGTIRNYLSVILDKLDLRDRTQLAIWYLSR,-0.592
4,HMTMEQAEFLSRQFNLLSQRLNDPSIEWQDIADLRSEYTGEDEHRDTIRKGAKLFYEYLEAGWIKN,-0.76
5,HMGIYDQAAAAYIEFVESKNRAPKWNELIDALYKENGKDWIDRSTLHGLLRRKEFQELLAQKRKEHLV,-0.76
6,HMWSQEPEYRPLYNSMDGFDAGQVVEMLQQSRIDYKVEPNSGALLVRSEDLADARLRLASAGISP,0.0488
7,HMNTPAENFDKAVEKYKSTNSATEKDAAFKVIEDEWIKLSDEEKKERQDEYDSIFESEGDRV,0.0843
8,HMGTGADQVSWKTGDKVTHKKWGEGTVVKVSGSGNDKELDIAFPQQGVKRLLASFAPIKKVT,-0.0162
9,HMNGQITPSRAKEIALGHAGVSEGSANFKKIKLDNKNGRPAYEIEFIANNSRYEFEINASNGSIIKFNK,-0.321
10,HMSSVTGMERFLSSGAVKGIGKTMAARIVEHFGTETMTVLESFPERLAEVPGIGAKKAEAIGQSYSEISD,0.158
11,HMDKEIKILKEKRLDDVQQAIRELSPQKRRVVEMKLYHNSTNQEVADKLAISVNTVKSLYTSALHDLRRIL,-0.953
12,HMGGEEPYGSGSLRLAAGAVVPSGYTIKGNEDSMLYHTTESPWYKQTIAEVWFNAESAAQRAGFTRWDAKD,-0.137
13,HMEETIVFGQQKAINALSSDAGLSSNELDSYLKKRYKRPLYQLSKSEGAELIQGFQDGSLSKASIMDYVS,0.19
14,HMENRLREVRDEIATRHGILPTVFINDRVLMNIHSKKPKDVSQLWQVDGISDEFIMKYGPEFIAEYKKKAK,-0.119
15,HMGIMNFDTWLKSLPGTPTPTIAAKKSGLAAPTLLRHVERGYSTADNVIAIAKAYGVSPIDALVDNGML,-0.956
16,HMAKYEVVAKDIISRIKQNEFETTLKLPTEDEMIEYYQVSRNTVRSALKLLTSQGIIFSRQGSGFYIRQRS,-1.95
17,HMKQTDQELAEMLRFRAAQRGLLMSDEVVNYVMTRVERSAKSLIMLLDRIDRAALAQARPVTIPLINEL,-0.523
18,HMQNEIQQLAIDLIARAHKSGASDIHIVDTGTYTRIKFRVLGLLREDSQMEAETGRQMISTIYGILG,-0.0698
19,HMKTEIGQAMRKLRKAKKMTQDTLAEKLGVAPANISRYEKGQQGIEVDKLPTLADALGVSVPEFFAIASG,0.0367
20,HMNPETPAQQAVRKRLIVSVQFYRRLKDTPLKAVWQVAARDTLVNGYNLFLKRNIHAFNDRTLSTPSALS,-0.0445
21,HMKGDYWIIDLDKNYQYAIISEPDRQYLWILSRSPNMDTQTLETLKEKIRSKGFDLTYLKQTL,-1.53
22,HMYVEVPNFIGVPLVKVQSELASLGLVFNKSVVYQTSPYLKGNILDQRPLPGEVVPLNTEMSFTVSSGPA,-0.5
23,HMPQTDDSEPLGKYGRMRLAYLKNQRPVLYNQMLLNGTLWPHLQDVQKTAYEWLERTMTTLLDK,0.0585
24,HMNSVYTPDPKELAKAIKIVTAAREAEQKGQGVIAVDGRMVDAPVVSQALRILELARLAGMEVSE,0.0743
25,HMATLTPLGRLQLARYHAQERATLAATAERFQVSTTTVRRWVGRYHQVVAAGGRPTTADMQDRPSRP,-2.07
26,HMNDILETISNQIRDLRVSKKITQQELAERTNLSVPYISQIENGHRNISLETFIKIVDALDIPLSDFFLP,-1.95

row,Sequence,soluble fraction (log2)
1,HMSSVDLLSERERQVLARISRGMSNEEIAAELAITPRTVRNHLANIYGKIDVHSRAEAVVWARERGIT,-0.362
2,HMGNFQNIFRKLRTSSNLTQNAIAEKLGISRSTIGMYETGAREPDFETLEKIADYFNVDTDFLLGRTNQTT,-0.315
3,HMNIMAQDWISSPMGPISFKSNQHGLVKIGWGEVPRENTEQPNLEFTRKWLVDYFEGKASPLPYF,-0.623
4,HMGSWDDFFNAIRLDNPNTLQALLQRGFDPNTVDQQGTPALMRALQEQSYRAAEVLADHPQI,-0.603
5,HMEAAIRNALSRVENPDETQRARIYRTAHDALIRNLENRGITDPEQVRPQVSRLKDLISVIEREYHG,-0.131
6,HMNAQLTTIPDLDGMNMRAATAMLSSLGLEVKRIGSGTVFAQFPKAGAAMRPGSMVTIRGKAKSL,-0.777
7,HMKANIGDQVFTQLKDQIINGEWRPGDRIPSEAQLIQLFGVSRGTVRQAVQKLAGEGLIVTRHGEGSFVQG,-0.0329
8,HMVISLREINLIGVYGRPNARRALVRLSNGRYVRVEVGSDLDGGKVTAIGDEALNFVKRGRTYAIQLPA,-1.11
9,HMVEVVDAEKLEERLSKVFSAAVLLEIYNENPAHGKEYAYLFTARKNAVEEMIENGQMKRETWEAK,-0.987
10,HMSIITLFQEINAAVAEATGGRVPESVVQNFILGKDVVIPEDVKEIIISKLKAFATDIEGMLEESGFD,-2.62
11,HMQPPVDGNEIMEIFGIKGSPVIGVIKSTIKNAILDGIIAPNDREAALELMFRIADENGLKPVVTQTQ,-0.0513
12,HMANKTISMTTLKLVIQQLSKGISRQSISAQYHISRNTIKKYEKRIKAMDMKIEDILKLSDEEISNLLQ,-3
13,HMREEFIGVLDGKVAIFHGRPERKGPLKEVTAIEVDKLPRQEQADLEKGLVIRTDKEKLQLMEGLAALLD,0.683
14,HMSQNISSTKLIPENIKIGMSVFVIPLQQKGIVQSLPNRSKEVLVQIGNAKINVKINNLKLIED,-0.142
15,HMAPADLSPEERVVLDALALEPVHVDALAAKLGRRSEELLTSLTLMEMRGLAVAHAGSRYSRATMT,-0.14
16,HMVDKTMYDRYAVDDYVRVIDGPLVGTEGRIIELDRETGNVKIEAVFFGRVTTADINFALIEKVD,-0.717
17,HMLETHRRRQIILSLLRESGMLDVDEVAARLVVSPNTIRNDFNALAAEGLLRRIRGGATLAEP,-1.45
18,HMEEDPIIIAQRFLNIFRQLHIFSEEKKESFNKMLLEQPAEIRGALRSLPGGGLLQDYIDDLESKA,-0.698
19,HMLSSEQQQKLDSLSRKELEVAELVSHGATNKMIARTMNITERTVKAHLTAIFQKMNIPDRLSLAIFFRDL,-2.79
20,HMRDTDAEVTYKLNEPFKTMGSVSVEGKVLEFAGSKWFARAAEFASNTEVYPLAKNRVRLTFTFHGLTAP,0.146
21,HMENFDNIFDQRLMPSLFIIRNINQAIENNNNNKFLLNSTISMKDKHWIEIHPHHLKLIISGYQT,-0.328
22,HMKEPFETMPDVMDAKQIAEALQISKAGAYNLLNSPDFPTLRIGGRKLVMKNELVEWLKSHTNRK,0.428
23,HMVEMPEVGVKVRIEVESHNGSTNFEGIVLHPASKGHLTLKLINGYNASYLIEEIRNLEIIDSS,-1.64
24,HMDNFDVVLTSPGDQKVQVIKAVRSITGLGLKEAKDLVDGAPNTVKEGVKKLDAEEMLKQLTEAGATGEL,0.35
25,HMSRAAQRLFMSQPPLSRHIRQLEDRLGVTLFVRHTRGLTLTEDGQRVLEMVRPLLDLQDKTYAALSQLT,0.0487
26,HMFIRINQTQNSPRKSVQIVESKRDGHKVRTKILRHVGIAMDDVELQKLKSLAQDIIAKMTVETENASKQ,-0.529

row,Sequence,soluble fraction (log2)
1,HMLKVHPRDQEENRLLLLKGERLYEESTGDTRVMIDMWLRKFEEALNSRSRENIEDARRELKEQLAELDN,-0.185
2,HMKRITKKELKQAIVDVFADKPGQSFNYKQLATIIGIKDDPTRRMITDILYELVQEERIVELYRGKFKMEM,-2.58
3,HMGNLIIFYDEGIGSGPLMKAVNDSGVSLVYEYKNLHGIAIRPSAKTNIQDAIAYFQKVNGVLSVEQ,-2.92
4,HMEDKQRRMGELVALLNRAAYAYYTKDEPIMADVQYDRLYDELLSLEKETGVQMADSPTHRV,0.0301
5,HMGAWQQTGFFRNRENAESLAEVLRQRGFSPVVREDTRPSGTVYYAVLVPDDGTTAARLKDAGIDSYPV,0.121
6,HMPIGENIKRLRIMHGLSQKELAQIAGVSDKAVSTWENGTKEPRMGAVQKITGYFGLKKSNLIEDNGL,-0.0452
7,HMDEWDDGDKPKLKITLYADDDYYFASGFSKSSVSLSGSDGTVTSVSRSSSDTLIVYVTLDALD,0.033
8,HMEPSAQEIANKLLGHVKSLGLPITGLSISYNSTSDLATVRGQVQSQADREKIILAVGNVDHVAKVDDQLT,-0.028
9,HMGKEYERALQQVTKSEIDSDEKLQQQMDALVNSPRISDKEDAWALLLVKKLRNEGVEWDELPDVLSERVQ,0.159
10,HMSPTSSRAAQARIRKMIESESPLKPISDSQLAARLGEEGISIARRTVAKYREQMNILPASQRRGV,-0.351
11,HMDLRYKVQYNFIDQGMMTKDELLKFSLNQDDVSKIAVFDNDSKQWKEIYAITEISEKLGIS,-0.452
12,HMALPASLSPREREIVSLISQGKTNSEIASLLYISVPTVKTHISNIFQKTGVSNRTSLLNRLRMS,-0.996
13,HMNKVQTFIIEKHIKEVFEHTNRTYYRSGQYYFQTRDEFSMALKRFLKDREPNKKNWIDSIINRA,-0.945
14,HMYDDLEPFDANGRLRWSDKELILAFGRHRGVTLQTLELNDPGYLRWLLSGNGPLEQQDRKRLEDILES,-1.45
15,HMTGSTSVAQVSTPSGSLNLRAYASTSARVLLQIPEYAFVTVYNRGATWSYVSYNGVSGYVMSVYLSFGG,-2.31
16,HMNEISFYPNPAKESLTVKGLSEITSYSISDINGKLIQYGTTFDRINLEKLTKGFYFLTIGNTISKKLIV,-0.311
17,HMNVGKRLKSLREKYKFSLEEVAKKIKSSAGAISRYENNERKINSESLIRLSNLYNVSPEYILYG,-0.621
18,HMSSQGSLEKGYSALLDGRLDDAALAYGAALAANPMERDALLGLAYVAHSKGRREEAQALYRKVLR,-0.303
19,HMSKNDLAGDEADVYKLLSVETGKPISDLVNRLPFGKSKTREILNTLAEKGFVYISGSGRGTKYHR,-0.296
20,HMDTYKGFIFEVVDKYFSPTLNQKIGQAKNKQGIVLLQTKPSFTQDPKVLIEELKLIIDRDNLKA,-1.07
21,HMPVTKSARQSRIGELIAREPVRSQSELAARLADDGIVVSQGTLSKDLLELGAVRVRTSSGELAYALL,0.0547
22,HMGPSVGMTVGEMERDLIFRTLETVGDNRTKAADMLGISIRTLRNKLNEYREAGFEWPRKAG,-0.223
23,HMKKTIIVHVVGEVNTPGIVELNEGARIIDAINGAGGKTEEADMSKINLAYVIEDGSQIYVPSIYE,-0.387
24,HMNQYALTDREKNVLGLLVDGLSYKMIADKENISFHTVNAHVRKIYEKLHVHSLAEAVSKALKENL,-2.07
25,HMGEGRVRLAQEAANRFMTAMAGDRPGFEEAGRALFAGDRARFHAETEGWPEDIRDHARRLAEPALQ,0.144
